Laboratory results as given in patent US20190389914A1 (University of California, published 2019).
Residue numbers refer to the chain shown, from its start.

Tests used:
Experiment in all cases: Y2H, beta-gal staining
[1] = biological target: T1, GAL4 activation domain fusion to HAB1 V393K (Arabidopsis thaliana (Mouse-ear cress), UniProt Q9CAJ0 4-511)
T1 construct: Mutant of the pACT-HAB1 template, which lacks the three N-terminal amino acids of HAB1
T1 sequence: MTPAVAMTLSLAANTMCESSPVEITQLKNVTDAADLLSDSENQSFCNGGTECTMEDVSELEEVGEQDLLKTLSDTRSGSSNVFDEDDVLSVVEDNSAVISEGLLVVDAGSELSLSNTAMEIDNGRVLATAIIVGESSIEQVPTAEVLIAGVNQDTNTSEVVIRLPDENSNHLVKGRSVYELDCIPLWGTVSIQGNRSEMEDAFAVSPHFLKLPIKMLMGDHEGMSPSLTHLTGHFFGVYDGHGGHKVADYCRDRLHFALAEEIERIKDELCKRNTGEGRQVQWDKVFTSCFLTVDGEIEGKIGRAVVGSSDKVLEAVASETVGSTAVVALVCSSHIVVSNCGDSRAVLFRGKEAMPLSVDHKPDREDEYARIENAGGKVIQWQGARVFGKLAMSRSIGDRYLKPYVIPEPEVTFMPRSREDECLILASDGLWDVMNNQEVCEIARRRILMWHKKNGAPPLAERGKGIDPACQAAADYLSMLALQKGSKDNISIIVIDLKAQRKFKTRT

[2] = biological target: T2, GAL4 activation domain fusion to HAB1 E203D (Arabidopsis thaliana (Mouse-ear cress), UniProt Q9CAJ0 4-511)
T2 construct: Mutant of the pACT-HAB1 template, which lacks the three N-terminal amino acids of HAB1
T2 sequence: T1 sequence with E200D, K390V

[3] = biological target: T3, GAL4 activation domain fusion to HAB1 I383G (Arabidopsis thaliana (Mouse-ear cress), UniProt Q9CAJ0 4-511)
T3 construct: Mutant of the pACT-HAB1 template, which lacks the three N-terminal amino acids of HAB1
T3 sequence: T1 sequence with I380G, K390V

[4] = biological target: T4, GAL4 activation domain fusion to HAB1 V393Q (Arabidopsis thaliana (Mouse-ear cress), UniProt Q9CAJ0 4-511)
T4 construct: Mutant of the pACT-HAB1 template, which lacks the three N-terminal amino acids of HAB1
T4 sequence: T1 sequence with K390Q

[5] = biological target: T5, GAL4 activation domain fusion to HAB1 E203T (Arabidopsis thaliana (Mouse-ear cress), UniProt Q9CAJ0 4-511)
T5 construct: Mutant of the pACT-HAB1 template, which lacks the three N-terminal amino acids of HAB1
T5 sequence: T1 sequence with E200T, K390V

Measured: binding result

B1: GAL4 DNA binding domain fusion to PYR1 (pBD-PYR1), wild type (receptor)
chain: MKLLSSIEQACDICRLKKLKCSKEKPKCAKCLKNNWECRYSPKTKRSPLTRAHLTEVESRLERLEQLFLLIFPREDLDMILKMDSLQDIKALLTGLFVQDNVNKDAVTDRLASVETDMPLTLRQHRISATSSSEESSNKGQRQLTVSMPSELTPEERSELKNSIAEFHTYQLDPGSCSSLHAQRIHAPPELVWSIVRRFDKPQTYKHFIKSCSVEQNFEMRVGCTRDVIVISGLPANTSTERLDILDDERRVTGFSIIGGEHRLTNYKSVTTVHRFEKENRIWTVVLESYVVDMPEGNSEDDTRMFADTVVKLNLQKLATVAEAMARNSGDGSGSQVT
notes: Yeast two-hybrid bait expressed in S. cerevisiae; also called WT
no binding (tested: 10 µM ABA): [1] | [2] | [3] | [4] | [5]
